Patent US20180292409A1 (REGENTS OF THE UNIVERSITY OF MINNESOTA, published 2018)

Molecular target: T1, progesterone receptor (PR) (human, UniProt P06401 1-933, limits assumed)
T1 construct: also called total PR; PR-A
T1 sequence (looked up): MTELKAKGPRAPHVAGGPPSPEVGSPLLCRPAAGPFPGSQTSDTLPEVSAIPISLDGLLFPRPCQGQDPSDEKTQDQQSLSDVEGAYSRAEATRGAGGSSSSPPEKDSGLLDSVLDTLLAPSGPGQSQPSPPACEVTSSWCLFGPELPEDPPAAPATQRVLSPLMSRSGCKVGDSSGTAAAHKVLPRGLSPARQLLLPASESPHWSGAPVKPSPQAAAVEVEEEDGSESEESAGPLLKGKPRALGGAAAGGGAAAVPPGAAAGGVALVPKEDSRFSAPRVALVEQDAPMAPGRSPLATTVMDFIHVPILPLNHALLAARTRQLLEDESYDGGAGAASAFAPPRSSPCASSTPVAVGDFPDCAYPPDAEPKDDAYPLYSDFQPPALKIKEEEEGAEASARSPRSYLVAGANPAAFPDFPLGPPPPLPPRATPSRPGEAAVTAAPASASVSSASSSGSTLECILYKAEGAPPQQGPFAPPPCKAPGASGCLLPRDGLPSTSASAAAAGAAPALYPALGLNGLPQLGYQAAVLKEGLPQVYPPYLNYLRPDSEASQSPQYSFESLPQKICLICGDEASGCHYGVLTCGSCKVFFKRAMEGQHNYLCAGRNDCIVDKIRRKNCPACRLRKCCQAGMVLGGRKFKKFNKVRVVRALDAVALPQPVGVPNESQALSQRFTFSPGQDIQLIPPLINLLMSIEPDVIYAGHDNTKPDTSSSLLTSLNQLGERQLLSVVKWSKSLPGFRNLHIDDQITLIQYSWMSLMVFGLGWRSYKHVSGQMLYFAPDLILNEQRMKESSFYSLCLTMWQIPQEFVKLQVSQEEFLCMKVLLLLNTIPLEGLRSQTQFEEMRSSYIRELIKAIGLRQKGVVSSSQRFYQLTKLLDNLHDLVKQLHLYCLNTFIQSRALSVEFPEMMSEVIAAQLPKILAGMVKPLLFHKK
Experiment: co-immunoprecipitation from breast cancer cell whole cell lysates

- binding result: no binding
B1: RUNX2 (other, UniProt Q13950 1-521, looked up)
chain: MASNSLFSTVTPCQQNFFWDPSTSRRFSPPSSSLQPGKMSDVSPVVAAQQQQQQQQQQQQQQQQQQQQQQQEAAAAAAAAAAAAAAAAAVPRLRPPHDNRTMVEIIADHPAELVRTDSPNFLCSVLPSHWRCNKTLPVAFKVVALGEVPDGTVVTVMAGNDENYSAELRNASAVMKNQVARFNDLRFVGRSGRGKSFTLTITVFTNPPQVATYHRAIKVTVDGPREPRRHRQKLDDSKPSLFSDRLSDLGRIPHPSMRVGVPPQNPRPSLNSAPSPFNPQGQSQITDPRQAQSSPPWSYDQSYPSYLSQMTSPSIHSTTPLSSTRGTGLPAITDVPRRISDDDTATSDFCLWPSTLSKKSQAGASELGPFSDPRQFPSISSLTESRFSNPRMHYPATFTYTPPVTSGMSLGMSATTHYHTYLPPPYPGSSQSQSGPFQTSSTPYLYYGTSSGSYQFPMVPGGDRSPSRMLPPCTTTSNGSTLLNPNLPNQNDGVDADGSHSSSPTVLNSSGRMDESVWRPY
notes: also called runt-related transcription factor 2
